{"source": "paper PMC12787490", "about": "“PSA-Responsive Aptamer-Based Switchable Aggregates of Ultrasmall Gold Nanoparticles”", "binders": {"B1": {"name": "AS2-biotin (structured_DNA)", "DNA": "GGGCGGGGCGGACGAGACAGTAAGGGCTGTGGGTGTGGTG", "modifications": "3' biotin"}, "B2": {"name": "aPSA-biotin (ssDNA)", "DNA": "ATTAAAGCTCGCCATCAAATAGC", "modifications": "biotin"}, "B3": {"name": "AS2-tail-biotin:RevAS2 (mixed)", "DNA": "GGGCGGGGCGGACGAGACAGTAAGGGCTGTGGGTGTGGTGTTTTTTT", "?": "AAAAAAACACCACAC", "modifications": "3' biotin on AS2-tail"}, "B4": {"name": "AS2-tail-thio:RevAS2-thio (AS2-US-AuNP-Aggregate) (mixed)", "DNA": "GGGCGGGGCGGACGAGACAGTAAGGGCTGTGGGTGTGGTGTTTTTTT", "?": "AAAAAAACACCACAC", "modifications": "3' thiol on AS2-tail, 5' thiol on RevAS2; conjugated to gold nanoparticles"}}, "key": {"[1]": {"target": "T1, prostate-specific antigen (PSA) (human, UniProt P07288 25-261)", "T1 sequence (P07288 25-261)": "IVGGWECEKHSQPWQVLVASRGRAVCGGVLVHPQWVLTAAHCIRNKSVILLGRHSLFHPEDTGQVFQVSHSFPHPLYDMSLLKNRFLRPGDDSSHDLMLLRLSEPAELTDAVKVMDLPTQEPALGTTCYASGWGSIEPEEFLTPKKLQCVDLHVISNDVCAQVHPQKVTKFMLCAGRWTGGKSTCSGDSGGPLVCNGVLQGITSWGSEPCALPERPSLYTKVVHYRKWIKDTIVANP", "assay": "ELONA (direct); significant signal from 250 nM, 5 mM MgCl2; ELONA: PSA 250 ng/well adsorbed; aptamers 3.9-500 nM in PBS + 5 mM MgCl2, 1 h at 37 C; block 3% BSA + 100 nM ssDNA mix; wash PBS 0.05% Tween-20", "conditions": "protein: commercial; label: biotin; stem-loops nt 4-14 and 17-30 (predicted)"}, "[2]": {"target": "T1, prostate-specific antigen (PSA)", "assay": "ELONA (direct); 3.9-500 nM aptamer, 5 mM MgCl2; ELONA: PSA 250 ng/well adsorbed; aptamers 3.9-500 nM in PBS + 5 mM MgCl2, 1 h at 37 C; block 3% BSA + 100 nM ssDNA mix; wash PBS 0.05% Tween-20", "conditions": "protein: commercial; label: biotin"}, "[3]": {"target": "T1, prostate-specific antigen (PSA)", "assay": "ELONA (direct); significant signal from 250 nM; affinity comparable to AS2; 5 mM MgCl2; ELONA: PSA 250 ng/well adsorbed; aptamers 3.9-500 nM in PBS + 5 mM MgCl2, 1 h at 37 C; block 3% BSA + 100 nM ssDNA mix; wash PBS 0.05% Tween-20", "conditions": "protein: commercial; label: biotin; 15 bp duplex at 3' end of AS2-tail, 5' overhang 32 nt of AS2-tail"}, "[4]": {"target": "T1, prostate-specific antigen (PSA)", "assay": "DLS and plasmon shift (aggregate disassembly); response down to 10 fM PSA in buffer, 1 pM in filtered plasma; ELONA: PSA 250 ng/well adsorbed; aptamers 3.9-500 nM in PBS + 5 mM MgCl2, 1 h at 37 C; block 3% BSA + 100 nM ssDNA mix; wash PBS 0.05% Tween-20", "conditions": "protein: commercial; label: US-AuNP; 15 bp duplex at 3' end of AS2-tail, 5' overhang 32 nt; about 8 ssDNA per particle"}}}
{"binder": "B1", "values": [{"measurement": "binding result", "setting": "[1]", "value": "binds"}]}
{"binder": "B2", "values": [{"measurement": "binding result", "setting": "[2]", "value": "no binding"}]}
{"binder": "B3", "values": [{"measurement": "binding result", "setting": "[3]", "value": "binds"}]}
{"binder": "B4", "values": [{"measurement": "binding result", "setting": "[4]", "value": "binds"}]}
